Residues, ends and D or L forms follow the SMILES beside them. No end group written: not given here. carboxyfluorescein = carboxyfluorescein label
Legend:
Cbk1–Mob2 = assay: In vitro pulldown of Cbk1–Mob2; type: binding, Saccharomyces cerevisiae
Procedure: Cbk1 substrates containing the docking motifs or substrate sites were bacterially expressed as MBP or GST fusions. For pulldown assays, MBP-fusion lysates were incubated with amylose resin (New England Biolabs) on ice for 15 min, followed by washing with PBS (137 mM NaCl, 2.7 mM KCl, 4.3 mM Na2HPO4, 1.4 mM KH2PO4 [pH 7.3]). GST fusions were purified on glutathione Sepharose beads followed by dialysis into Cbk1 buffer.
MBP fusions were incubated on bead with 1 μM purified Cbk1 on ice for 15 min. Samples were washed 3× with PBS (transferred to fresh tube on last wash), resuspended in SDS-PAGE buffer, and separated by SDS-PAGE. Samples were directly visualized with GelCode Blue (Pierce) or transferred to PVDF membrane for immunoblotting. Cbk1 was detected using His or pS570 primary antibodies. For experiments detected using α-pS570, antibody signal with pure protein was analyzed to control for lot-dependent variations in expression as well as variations between Cbk1 mutants (no variations detected).

Cbk1^251-756-Mob2 = target: T1, Cbk1^251-756-Mob2 (Saccharomyces cerevisiae, UniProt P43563+P53894); assay: FP direct titration, Cbk1^251-756-Mob2 (WT); type: binding; details: CF-labeled peptide 20 nM, Tris pH 8.0, triplicate, read-out: peptide binding affinity (table in Fig 5C)
T1 construct: His6-Cbk1^251–756 was co-expressed with GST-Mob2 (full length or 45–287); His6 (N); made in house
T1 sequence (P53894 251-756): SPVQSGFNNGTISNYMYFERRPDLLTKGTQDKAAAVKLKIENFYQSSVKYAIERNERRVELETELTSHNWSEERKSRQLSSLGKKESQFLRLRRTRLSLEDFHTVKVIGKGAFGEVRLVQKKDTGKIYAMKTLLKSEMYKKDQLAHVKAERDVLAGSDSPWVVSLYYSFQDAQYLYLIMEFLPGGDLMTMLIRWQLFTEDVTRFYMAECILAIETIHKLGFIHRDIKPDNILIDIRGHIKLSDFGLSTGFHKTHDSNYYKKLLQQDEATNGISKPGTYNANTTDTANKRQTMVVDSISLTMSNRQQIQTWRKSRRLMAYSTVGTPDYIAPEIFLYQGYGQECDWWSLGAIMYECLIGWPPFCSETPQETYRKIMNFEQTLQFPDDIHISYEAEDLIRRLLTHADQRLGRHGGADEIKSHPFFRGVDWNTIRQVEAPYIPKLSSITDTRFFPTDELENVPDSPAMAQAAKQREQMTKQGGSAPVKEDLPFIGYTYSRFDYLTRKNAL
T1 sequence (P43563 1-287 partner): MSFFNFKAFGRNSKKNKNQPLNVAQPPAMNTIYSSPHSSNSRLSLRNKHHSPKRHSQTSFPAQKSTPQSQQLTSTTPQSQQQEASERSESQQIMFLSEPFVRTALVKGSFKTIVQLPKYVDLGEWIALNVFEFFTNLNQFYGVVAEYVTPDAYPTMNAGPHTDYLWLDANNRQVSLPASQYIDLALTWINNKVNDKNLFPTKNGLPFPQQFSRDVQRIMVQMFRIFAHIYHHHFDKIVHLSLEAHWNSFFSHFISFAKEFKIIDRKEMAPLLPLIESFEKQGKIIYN
Procedure: His6-Cbk1^251–756 was co-expressed with GST-Mob2 (full length or 45–287). Cbk1 kinase domain alone (352–756 or 352–692) was expressed as GST-Cbk1-His6. All constructs were bacterially expressed and purified on a Ni-NTA resin (Qiagen) followed by glutathione Sepharose beads (GE Biosciences). For crystallization, tags were cleaved with TEV protease followed by cation exchange chromatography on a Resource S column. All Cbk1 preparations were subsequently dialyzed into Cbk1 buffer (20 mM Tris-HCl, 150 mM NaCl, 2 mM DTT [pH 8.0]).
For FP-based binding affinity measurements, different docking peptides (pepAce2: GSGSIIVTTNSANGGYQFP; pepSSD1: TTEQSDFKFP; pepHM: IGYTYSRFDY; pepHM-P: IGYpTYSRFDY) were N-terminally (pepAce2 and pepSSD1) or C-terminally (pepHM and pepHM-P) labeled with carboxyfluorescein (CF) fluorescent dyes.
Change in the FP signal in direct binding affinity measurements was monitored as a function of increasing concentration of protein with a Synergy H4 (BioTek Instruments) plate reader in 384-well plates. The labeled peptides were at 20 nM in 20 mM Tris (pH 8.0), 100 mM NaCl, 0.05% Brij35P, 2 mM DTT. The resulting binding isotherms were fit to a quadratic binding equation. The affinity of the unlabeled peptides was measured in steady-state competition experiments: 20 nM labeled reporter was mixed with protein samples in a concentration to achieve ~60%–80% complex formation. Subsequently, increasing amounts of unlabeled peptide were added, and the FP signal was measured as described earlier for direct titration experiments. The Kd for each unlabeled peptide interaction was determined by fitting the data to a competition binding equation. Titration experiments were carried out in triplicate, and the average FP signal was used for fitting the data with OriginPro 7.

Cbk1(F699A)–Mob2 complex = Cbk1(F699A)–Mob2 complex (S. cerevisiae, UniProt P53894 251-756; P43563 1-287, F699A); assay: FP
Cbk1(W444A)–Mob2 complex = Cbk1(W444A)–Mob2 complex (S. cerevisiae, UniProt P53894 251-756; P43563 1-287, W444A); assay: FP
Sequence of Cbk1(W444A)–Mob2 complex (P53894 251-756 W444A, chain 1 of 2, one chain of several): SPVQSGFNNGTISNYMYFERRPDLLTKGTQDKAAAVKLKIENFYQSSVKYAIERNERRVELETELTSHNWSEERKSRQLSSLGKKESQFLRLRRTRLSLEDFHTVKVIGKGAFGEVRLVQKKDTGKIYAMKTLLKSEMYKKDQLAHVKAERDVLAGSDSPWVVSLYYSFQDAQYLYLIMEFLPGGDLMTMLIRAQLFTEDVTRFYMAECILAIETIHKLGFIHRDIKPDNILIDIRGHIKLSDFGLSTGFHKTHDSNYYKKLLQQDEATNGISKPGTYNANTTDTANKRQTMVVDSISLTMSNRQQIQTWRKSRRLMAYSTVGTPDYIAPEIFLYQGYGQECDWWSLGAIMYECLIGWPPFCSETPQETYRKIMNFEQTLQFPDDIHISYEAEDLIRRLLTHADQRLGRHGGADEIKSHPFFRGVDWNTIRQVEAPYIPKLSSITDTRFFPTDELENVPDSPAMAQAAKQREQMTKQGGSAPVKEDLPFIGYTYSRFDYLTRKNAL

[1] = target: T2, Cbk1^251–756–Mob2 complex (S. cerevisiae, UniProt P53894 251-756; P43563 1-287); assay: FP
T2 chain 1: T1 sequence (P53894 251-756)
T2 chain 2: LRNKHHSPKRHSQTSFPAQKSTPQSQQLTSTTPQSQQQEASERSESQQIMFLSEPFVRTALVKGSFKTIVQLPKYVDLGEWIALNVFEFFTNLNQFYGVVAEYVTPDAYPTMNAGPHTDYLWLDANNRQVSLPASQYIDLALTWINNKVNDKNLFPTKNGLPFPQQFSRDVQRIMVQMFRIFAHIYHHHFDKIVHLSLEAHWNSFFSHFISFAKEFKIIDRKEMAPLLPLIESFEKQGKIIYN

[2] = test system: budding yeast cell separation (RAM network output); assay: Cell separation assay (cells per group); type: cell-based, Saccharomyces cerevisiae; details: cbk1-as2 strain
[3] = test system: budding yeast cell separation (RAM network output); assay: Cell separation assay (cells per group); type: cell-based, Saccharomyces cerevisiae; details: cbk1-as2 strain; remark: listed apart in the source
Procedure: For cell separation assays, ckb1Δ, ace2ΔCBK1, or ace2Δcbk1-as2 cells were transformed with empty, WT, or mutant vector under control of the ADH1 promoter. Cells were grown to log-phase, briefly sonicated, and mounted on slides to count cell group size. Histograms represent mean ± standard deviation of three independent cultures, with >100 groups counted for each. For quantification of transcriptional output, RNA was isolated from log-phase cultures and analyzed by real-time PCR. Bar graphs represent mean ± standard deviation of three independent cultures. For growth assays, WT CBK1 or cbk1-as2 strains were transformed with vectors containing Ssd1 (WT and mutants) expressed from a galactose-inducible promoter. Stationary phase cells grown in glucose were diluted to OD600 = 0.2. Five-fold serial dilutions (5^−2, 5^−3, 5^−4, 5^−5) were plated in the presence of glucose or galactose, then incubated for 3 d at 24°C.
(§1) Supplementary file pbio.1002146.s001.xlsx: S1 Data Measurements of the distances between the centers of mass of indicated Cbk1 and Mob2 regions over the course of the molecular dynamics simulations described in Figs 3 and S4. This file also contains data quantifying the effectiveness of cell separation in different genetic backgrounds. In these experiments we counted the number of cells present in clumps of specific sizes in random microscope fields, and then binned these groups into clump size ranges: 1–4 cells, 5–10 cells, 11–20 cells, and ≥21 cells per clump. We quantified this for the indicated allele combinations, scoring three independent isolates of each allele combination. The number of cell bodies present in clumps of different sizes is a function of the efficiency of cell separation. (XLSX) Click here for additional data file.
as §1, with “pbio.1002146.s004.xlsx: S4” for “pbio.1002146.s001.xlsx: S1”, “Data” for “Measurements of the distances between the centers of mass of indicated Cbk1 and Mob2 regions over the course of the molecular dynamics simulations described in Figs 3 and S4. This file also contains data”, “1–2 cells, 3–4” for “1–4”

## 15-amino-acid peptide from Ace2: 15-amino-acid peptide from Ace2 with the sequence YQFP at its C-terminal end (IIVTTNSANGGYQFP; also: MBP fusion, end not given here)
Cbk1–Mob2; in vitro binding (Figs 4B, S5A, S5E)
  association with Cbk1–Mob2: associates with the Cbk1–Mob2 complex

## Ssd1^208–214: Ssd1 docking fragment used for Cbk1 pulldown (QSDFKFP; UniProt P24276 208-214, looked up, fragment)
Cbk1–Mob2; Cbk1 F699A mutant (Fig 5B)
  Cbk1 pulldown: not nearby F699A abrogate Cbk1 pulldown
Cbk1–Mob2; Cbk1 Y687A mutant (Fig 5B)
  Cbk1 pulldown: abrogate Cbk1 pulldown

## C[C@@H](O)[C@H](N)C(=O)N[C@H](C(=O)N[C@@H](CCC(=O)O)C(=O)N[C@@H](CCC(N)=O)C(=O)N[C@@H](CO)C(=O)N[C@@H](CC(=O)O)C(=O)N[C@@H](Cc1ccccc1)C(=O)N[C@@H](CCCCN)C(=O)N[C@@H](Cc1ccccc1)C(=O)N1CCC[C@H]1C(=O)O)[C@@H](C)O [pepSSD1] (H-TTEQSDFKFP-OH)
Cbk1^251-756-Mob2
  Kd: 6 µM

## carboxyfluorescein-GSGSIIVTTNSANGGYQFP [pepAce2, carboxyfluorescein-labelled]
Cbk1(F699A)–Mob2 complex
  Kd: 5 µM
Cbk1(W444A)–Mob2 complex
  Kd: 19 µM
[1]
  Kd: 5 µM

B1: Ace2 WT (protein, UniProt P21192 1-770, looked up)
Metallothionein expression …: MDNVVDPWYINPSGFAKDTQDEEYVQHHDNVNPTIPPPDNYILNNENDDGLDNLLGMDYYNIDDLLTQELRDLDIPLVPSPKTGDGSSDKKNIDRTWNLGDENNKVSHYSKKSMSSHKRGLSGTAIFGFLGHNKTLSISSLQQSILNMSKDPQPMELINELGNHNTVKNNNDDFDHIRENDGENSYLSQVLLKQQEELRIALEKQKEVNEKLEKQLRDNQIQQEKLRKVLEEQEEVAQKLVSGATNSNSKPGSPVILKTPAMQNGRMKDNAIIVTTNSANGGYQFPPPTLISPRMSNTSINGSPSRKYHRQRYPNKSPESNGLNLFSSNSGYLRDSELLSFSPQNYNLNLDGLTYNDHNNTSDKNNNDKKNSTGDNIFRLFEKTSPGGLSISPRINGNSLRSPFLVGTDKSRDDRYAAGTFTPRTQLSPIHKKRESVVSTVSTISQLQDDTEPIHMRNTQNPTLRNANALASSSVLPPIPGSSNNTPIKNSLPQKHVFQHTPVKAPPKNGSNLAPLLNAPDLTDHQLEIKTPIRNNSHCEVESYPQVPPVTHDIHKSPTLHSTSPLPDEIIPRTTPMKITKKPTTLPPGTIDQYVKELPDKLFECLYPNCNKVFKRRYNIRSHIQTHLQDRPYSCDFPGCTKAFVRNHDLIRHKISHNAKKYICPCGKRFNREDALMVHRSRMICTGGKKLEHSINKKLTSPKKSLLDSPHDTSPVKETIARDKDGSVLMKMEEQLRDDMRKHGLLDPPPSTAAHEQNSNRTLSNETDAL
[2]; Isolate 1
  Cells per group, bin 4 (3-4), %: 16.9065%
[2]; Isolate 1, count
  Cells per group, bin 2 (1-2), Frequency: 213
  Cells per group, bin 4 (3-4), Frequency: 47
[2]; Isolate 2, count
  Cells per group, bin 4 (3-4), Frequency: 18
[2]; Isolate 3
  Cells per group, bin 2 (1-2), %: 97.3684%
[3]; Isolate 1
  Cells per group, bin 2 (1-2), %: 76.6187%
  Cells per group, bin 10 (5-10), %: 5.7554%
  Cells per group, bin 20 (11-20), %: 0.7194%
  Cells per group, bin More (20+), %: 0%
[3]; Isolate 1, count
  Cells per group, bin 10 (5-10), Frequency: 16
  Cells per group, bin 20 (11-20), Frequency: 2
  Cells per group, bin More (20+), Frequency: 0
[3]; Isolate 2
  Cells per group, bin 2 (1-2), %: 92.7273%
  Cells per group, bin 4 (3-4), %: 6.545%
  Cells per group, bin 10 (5-10), %: 0.7273%
  Cells per group, bin 20 (11-20), %: 0%
  Cells per group, bin More (20+), %: 0%
[3]; Isolate 2, count
  Cells per group, bin 2 (1-2), Frequency: 255
  Cells per group, bin 10 (5-10), Frequency: 2
  Cells per group, bin 20 (11-20), Frequency: 0
  Cells per group, bin More (20+), Frequency: 0
[3]; Isolate 3
  Cells per group, bin 4 (3-4), %: 1.579%
  Cells per group, bin 10 (5-10), %: 0.5263%
  Cells per group, bin 20 (11-20), %: 0.5263%
  Cells per group, bin More (20+), %: 0%
[3]; Isolate 3, count
  Cells per group, bin 2 (1-2), Frequency: 185
  Cells per group, bin 4 (3-4), Frequency: 3
  Cells per group, bin 10 (5-10), Frequency: 1
  Cells per group, bin 20 (11-20), Frequency: 1
  Cells per group, bin More (20+), Frequency: 0
[3]; mean of 3 isolates
  Cells per group, 1-2, Mean: 88.9048%
  Cells per group, 3-4, Mean: 8.344%
  Cells per group, 5-10, Mean: 2.336%
  Cells per group, 11-20, Mean: 0.4152%
  Cells per group, 20+, Mean: 0%
